Measured values taken from PMC6704105.

Target: PRMT5 (UniProt O14744)
Assay: co-IP with anti-PRMT5, JDP2 blot
Settings: reference: wild-type JDP2; sites T116

binding against the reference: lost
Substance: JDP2 (from UniProt Q8WYK2) JDP2 T116A
